{"source": "the supplement of paper PMC5998384", "key": {"HeLa Kyoto [1]": {"test_system": "HeLa Kyoto", "test": "solubility change mitosis vs G1/S (difference of NP-40 vs SDS log2 ratios) (log2 ratio difference); higher = more soluble in mitosis"}, "HeLa Kyoto [2]": {"test_system": "HeLa Kyoto", "test": "solubility in G1/S (NP-40 vs SDS abundance) (log2 ratio); higher = more soluble", "settings": "cell cycle stage: G1/S"}}}
{"substance": "MAGAGGQHHPPGAAGGAAAGAGAAVTSAAASAGPGEDSSDSEAEQEGPQKLIRKVSTSGQIRTKTSIKEGQLLKQTSSFQRWKKRYFKLRGRTLYYAKDSKSLIFDEVDLSDASVAEASTKNANNSFTIITPFRRLMLCAENRKEMEDWISSLKSVQTREPYEVAQFNVEHFSGMHNWYACSHARPTFCNVCRESLSGVTSHGLSCEVCKFKAHKRCAVRATNNCKWTTLASIGKDIIEDEDGVAMPHQWLEGNLPVSAKCAVCDKTCGSVLRLQDWKCLWCKTMVHTACKDLYHPICPLGQCKVSIIPPIALNSTDSDGFCRATFSFCVSPLLVFVNSKSGDNQGVKFLRRFKQLLNPAQVFDLMNGGPHLGLRLFQKFDNFRILVCGGDGSVGWVLSEIDKLNLNKQCQLGVLPLGTGNDLARVLGWGGSYDDDTQLPQILEKLERASTKMLDRWSIMTYELKLPPKASLLPGPPEASEEFYMTIYEDSVATHLTKILNSDEHAVVISSAKTLCETVKDFVAKVEKTYDKTLENAVVADAVASKCSVLNEKLEQLLQALHTDSQAAPVLPGLSPLIVEEDAVESSSEESLGESKEQLGDDVTKPSSQKAVKPREIMLRANSLKKAVRQVIEEAGKVMDDPTVHPCEPANQSSDYDSTETDESKEEAKDDGAKESITVKTAPRSPDARASYGHSQTDSVPGPAVAASKENLPVLNTRIICPGLRAGLAASIAGSSIINKMLLANIDPFGATPFIDPDLDSVDGYSEKCVMNNYFGIGLDAKISLEFNNKREEHPEKCRSRTKNLMWYGVLGTRELLQRSYKNLEQRVQLECDGQYIPLPSLQGIAVLNIPSYAGGTNFWGGTKEDDIFAAPSFDDKILEVVAIFDSMQMAVSRVIKLQHHRIAQCRTVKITIFGDEGVPVQVDGEAWVQPPGIIKIVHKNRAQMLTRDRAFESTLKSWEDKQKCDSGKPVLRTHLYIHHAIDLATEEVSQMQLCSQAAEELITRICDAATIHCLLEQELAHAVNACSHALNKANPRCPESLTRDTATEIAINVKALYNETESLLVGRVPLQLESPHEERVSNALHSVEVELQKLTEIPWLYYILHPNEDEEPPMDCTKRNNRSTVFRIVPKFKKEKVQKQKTSSQPVQKWGTEEVAAWLDLLNLGEYKDIFIRHDIRGAELLHLERRDLKDLGIPKVGHVKRILQGIKELGRSTPQSEV [DGKH]", "values": [{"measurement": "solubility change mitosis (log2)", "setting": "HeLa Kyoto [1]", "value": 0.0195}, {"measurement": "solubility in G1/S (log2)", "setting": "HeLa Kyoto [2]", "value": -0.212}]}
{"substance": "MAGNKGRGRAAYTFNIEAVGFSKGEKLPDVVLKPPPLFPDTDYKPVPLKTGEGEEYMLALKQELRETMKRMPYFIETPEERQDIERYSKRYMKVYKEEWIPDWRRLPREMMPRNKCKKAGPKPKKAKDAGKGTPLTNTEDVLKKMEELEKRGDGEKSDEENEEKEGSKEKSKEGDDDDDDDAAEQEEYDEEEQEEENDYINSYFEDGDDFGADSDDNMDEATY [POLR3G]", "values": [{"measurement": "solubility change mitosis (log2)", "setting": "HeLa Kyoto [1]", "value": -0.0224}, {"measurement": "solubility in G1/S (log2)", "setting": "HeLa Kyoto [2]", "value": 0.214}]}
{"substance": "MVGPGPTAAAAVEERQRKLQEYLAAKGKLKSQNTKPYLKSKNNCQNQPPSKSTIRPKNDVTNHVVLPVKPKRSISIKLQPRPPNTAGSQKPKLEPPKLLGKRLTSECVSSNPYSKPSSKSFQQCEAGSSTTGELSRKPVGSLNIEQLKTTKQQLTDQGNGKCIDFMNNIHVENESLDNFLKETNKENLLDILTEPERKPDPKLYTRSKPKTDSYNQTKNSLVPKQALGKSSVNSAVLKDRVNKQFVGETQSRTFPVKSQQLSRGADLARPGVKPSRTVPSHFIRTLSKVQSSKKPVVKNIKDIKVNRSQYERPNETKIRSYPVTEQRVKHTKPRTYPSLLQGEYNNRHPNIKQDQKSSQVCIPQTSCVLQKSKAISQRPNLTVGRFNSAIPSTPSIRPNGTSGNKHNNNGFQQKAQTLDSKLKKAVPQNHFLNKTAPKTQADVTTVNGTQTNPNIKKKATAEDRRKQLEEWQKSKGKTYKRPPMELKTKRKVIKEMNISFWKSIEKEEEEKKAQLELSSKINNTLTECLNLIEGGVPSNEILNILSSIPEAEKFAKFWICKAKLLASKGTFDVIGLYEEAIKNGATPIQELRKVVLNILQDSNRTTEGITSDSLVAETSITSVEELAKKMESVKSCLSPKEREQVTATPRIAKAEQHNYPGIKLQIGPIPRINGMPEVQDMKFITPVRRSSRIERAVSRYPEMLQEHDLVVASLDELLEVEETKCFIFRRNEALPVTLGFQTPES [CKAP2L]", "values": [{"measurement": "solubility change mitosis (log2)", "setting": "HeLa Kyoto [1]", "value": 0.95}, {"measurement": "solubility in G1/S (log2)", "setting": "HeLa Kyoto [2]", "value": -1.14}]}
{"substance": "MSRLEAKKPSLCKSEPLTTERVRTTLSVLKRIVTSCYGPSGRLKQLHNGFGGYVCTTSQSSALLSHLLVTHPILKILTASIQNHVSSFSDCGLFTAILCCNLIENVQRLGLTPTTVIRLNKHLLSLCISYLKSETCGCRIPVDFSSTQILLCLVRSILTSKPACMLTRKETEHVSALILRAFLLTIPENAEGHIILGKSLIVPLKGQRVIDSTVLPGILIEMSEVQLMRLLPIKKSTALKVALFCTTLSGDTSDTGEGTVVVSYGVSLENAVLDQLLNLGRQLISDHVDLVLCQKVIHPSLKQFLNMHRIIAIDRIGVTLMEPLTKMTGTQPIGSLGSICPNSYGSVKDVCTAKFGSKHFFHLIPNEATICSLLLCNRNDTAWDELKLTCQTALHVLQLTLKEPWALLGGGCTETHLAAYIRHKTHNDPESILKDDECTQTELQLIAEAFCSALESVVGSLEHDGGEILTDMKYGHLWSVQADSPCVANWPDLLSQCGCGLYNSQEELNWSFLRSTRRPFVPQSCLPHEAVGSASNLTLDCLTAKLSGLQVAVETANLILDLSYVIEDKN [MKKS]", "values": [{"measurement": "solubility change mitosis (log2)", "setting": "HeLa Kyoto [1]", "value": 0.46}, {"measurement": "solubility in G1/S (log2)", "setting": "HeLa Kyoto [2]", "value": -0.925}]}
{"substance": "MASLGPAAAGEQASGAEAEPGPAGPPPPPSPSSLGPLLPLQREPLYNWQATKASLKERFAFLFNSELLSDVRFVLGKGRGAAAAGGPQRIPAHRFVLAAGSAVFDAMFNGGMATTSAEIELPDVEPAAFLALLRFLYSDEVQIGPETVMTTLYTAKKYAVPALEAHCVEFLTKHLRADNAFMLLTQARLFDEPQLASLCLDTIDKSTMDAISAEGFTDIDIDTLCAVLERDTLSIRESRLFGAVVRWAEAECQRQQLPVTFGNKQKVLGKALSLIRFPLMTIEEFAAGPAQSGILSDREVVNLFLHFTVNPKPRVEYIDRPRCCLRGKECCINRFQQVESRWGYSGTSDRIRFTVNRRISIVGFGLYGSIHGPTDYQVNIQIIEYEKKQTLGQNDTGFSCDGTANTFRVMFKEPIEILPNVCYTACATLKGPDSHYGTKGLKKVVHETPAASKTVFFFFSSPGNNNGTSIEDGQIPEIIFYT [BTBD1]", "values": [{"measurement": "solubility change mitosis (log2)", "setting": "HeLa Kyoto [1]", "value": 0.0289}, {"measurement": "solubility in G1/S (log2)", "setting": "HeLa Kyoto [2]", "value": -0.225}]}
{"substance": "NES", "values": [{"measurement": "solubility change mitosis (log2)", "setting": "HeLa Kyoto [1]", "value": 0.912}, {"measurement": "solubility in G1/S (log2)", "setting": "HeLa Kyoto [2]", "value": -1.35}]}
{"substance": "MKALIVLGLVLLSVTVQGKVFERCELARTLKRLGMDGYRGISLANWMCLAKWESGYNTRATNYNAGDRSTDYGIFQINSRYWCNDGKTPGAVNACHLSCSALLQDNIADAVACAKRVVRDPQGIRAWVAWRNRCQNRDVRQYVQGCGV [LYZ]", "values": [{"measurement": "solubility change mitosis (log2)", "setting": "HeLa Kyoto [1]", "value": 2.19}, {"measurement": "solubility in G1/S (log2)", "setting": "HeLa Kyoto [2]", "value": -1.78}]}
{"substance": "CBWD1", "values": [{"measurement": "solubility change mitosis (log2)", "setting": "HeLa Kyoto [1]", "value": -0.0771}, {"measurement": "solubility in G1/S (log2)", "setting": "HeLa Kyoto [2]", "value": 0.26}]}
{"substance": "MTEESEETVLYIEHRYVCSECNQLYGSLEEVLMHQNSHVPQQHFELVGVADPGVTVATDTASGTGLYQTLVQESQYQCLECGQLLMSPSQLLEHQELHLKMMAPQEAVPAEPSPKAPPLSSSTIHYECVDCKALFASQELWLNHRQTHLRATPTKAPAPVVLGSPVVLGPPVGQARVAVEHSYRKAEEGGEGATVPSAAATTTEVVTEVELLLYKCSECSQLFQLPADFLEHQATHFPAPVPESQEPALQQEVQASSPAEVPVSQPDPLPASDHSYELRNGEAIGRDRRGRRARRNNSGEAGGAATQELFCSACDQLFLSPHQLQQHLRSHREGVFKCPLCSRVFPSPSSLDQHLGDHSSESHFLCVDCGLAFGTEALLLAHRRAHTPNPLHSCPCGKTFVNLTKFLYHRRTHGVGGVPLPTTPVPPEEPVIGFPEPAPAETGEPEAPEPPVSEETSAGPAAPGTYRCLLCSREFGKALQLTRHQRFVHRLERRHKCSICGKMFKKKSHVRNHLRTHTGERPFPCPDCSKPFNSPANLARHRLTHTGERPYRCGDCGKAFTQSSTLRQHRLVHAQHFPYRCQECGVRFHRPYRLLMHRYHHTGEYPYKCRECPRSFLLRRLLEVHQLVVHAGRQPHRCPSCGAAFPSSLRLREHRCAAAAAQAPRRFECGTCGKKVGSAARLQAHEAAHAAAGPGEVLAKEPPAPRAPRATRAPVASPAALGSTATASPAAPARRRGLECSECKKLFSTETSLQVHRRIHTGERPYPCPDCGKAFRQSTHLKDHRRLHTGERPFACEVCGKAFAISMRLAEHRRIHTGERPYSCPDCGKSYRSFSNLWKHRKTHQQQHQAAVRQQLAEAEAAVGLAVMETAVEALPLVEAIEIYPLAEAEGVQISG [ZNF574]", "values": [{"measurement": "solubility change mitosis (log2)", "setting": "HeLa Kyoto [1]", "value": 0.212}, {"measurement": "solubility in G1/S (log2)", "setting": "HeLa Kyoto [2]", "value": -0.386}]}
{"substance": "MEQRRVTDFFARRRPGPPRIAPPKLACRTPSPARPALRAPASATSGSRKRARPPAAPGRDQARPPARRRLRLSVDEVSSPSTPEAPDIPACPSPGQKIKKSTPAAGQPPHLTSAQDQDTISELASCLQRARELGARVRALKASAQDAGESCTPEAEGRPEEPCGEKAPAYQRFHALAQPGLPGLVLPYKYQVLAEMFRSMDTIVGMLHNRSETPTFAKVQRGVQDMMRRRFEECNVGQIKTVYPASYRFRQERSVPTFKDGTRRSDYQLTIEPLLEQEADGAAPQLTASRLLQRRQIFSQKLVEHVKEHHKAFLASLSPAMVVPEDQLTRWHPRFNVDEVPDIEPAALPQPPATEKLTTAQEVLARARNLISPRMEKALSQLALRSAAPSSPGSPRPALPATPPATPPAASPSALKGVSQDLLERIRAKEAQKQLAQMTRCPEQEQRLQRLERLPELARVLRSVFVSERKPALSMEVACARMVGSCCTIMSPGEMEKHLLLLSELLPDWLSLHRIRTDTYVKLDKAADLAHITARLAHQTRAEEGL [CDT1]", "values": [{"measurement": "solubility change mitosis (log2)", "setting": "HeLa Kyoto [1]", "value": 0.575}, {"measurement": "solubility in G1/S (log2)", "setting": "HeLa Kyoto [2]", "value": 0.0981}]}
{"substance": "MAMVVSSWRDPQDDVAGGNPGGPNPAAQAARGGGGGAGEQQQQAGSGAPHTPQTPGQPGAPATPGTAGDKGQGPPGSGQSQQHIECVVCGDKSSGKHYGQFTCEGCKSFFKRSVRRNLTYTCRANRNCPIDQHHRNQCQYCRLKKCLKVGMRREAVQRGRMPPTQPNPGQYALTNGDPLNGHCYLSGYISLLLRAEPYPTSRYGSQCMQPNNIMGIENICELAARLLFSAVEWARNIPFFPDLQITDQVSLLRLTWSELFVLNAAQCSMPLHVAPLLAAAGLHASPMSADRVVAFMDHIRIFQEQVEKLKALHVDSAEYSCLKAIVLFTSDACGLSDAAHIESLQEKSQCALEEYVRSQYPNQPSRFGKLLLRLPSLRTVSSSVIEQLFFVRLVGKTPIETLIRDMLLSGSSFNWPYMSIQCS [NR2F1]", "values": [{"measurement": "solubility change mitosis (log2)", "setting": "HeLa Kyoto [1]", "value": 0.0314}, {"measurement": "solubility in G1/S (log2)", "setting": "HeLa Kyoto [2]", "value": -0.152}]}
{"substance": "MVPAAGRRPPRVMRLLGWWQVLLWVLGLPVRGVEVAEESGRLWSEEQPAHPLQVGAVYLGEEELLHDPMGQDRAAEEANAVLGLDTQGDHMVMLSVIPGEAEDKVSSEPSGVTCGAGGAEDSRCNVRESLFSLDGAGAHFPDREEEYYTEPEVAESDAAPTEDSNNTESLKSPKVNCEERNITGLENFTLKILNMSQDLMDFLNPNGSDCTLVLFYTPWCRFSASLAPHFNSLPRAFPALHFLALDASQHSSLSTRFGTVAVPNILLFQGAKPMARFNHTDRTLETLKIFIFNQTGIEAKKNVVVTQADQIGPLPSTLIKSVDWLLVFSLFFLISFIMYATIRTESIRWLIPGQEQEHVE [TXNDC15]", "values": [{"measurement": "solubility change mitosis (log2)", "setting": "HeLa Kyoto [1]", "value": -0.0906}, {"measurement": "solubility in G1/S (log2)", "setting": "HeLa Kyoto [2]", "value": 0.719}]}
